Results from patent US20230242584A1, “NOVEL POLYPEPTIDES WITH SKIN WHITENING ACTIVITY AND USE THEREOF” (Metapore Co., Ltd., priority 2019, published 2023).

Legend:
tyrosinase = biological target: T1, tyrosinase (Mus musculus, UniProt P11344); experiment: Tyrosinase activity assay (tyrosinase inhibitory effect); type: cell-based; settings: 10 μM polypeptide, α-MSH 0.5 μM, 24 hours, B16F10 cell lysate with 5 mM L-DOPA; control 10 μM arbutin; FIG. 2
T1 construct: Cells were lysed with PBS buffer containing 1% Triton X-100 (Sigma); endogenous in cells; host or cells: B16F10 cells, stimulated with alpha-MSH
T1 sequence (P11344 19-533): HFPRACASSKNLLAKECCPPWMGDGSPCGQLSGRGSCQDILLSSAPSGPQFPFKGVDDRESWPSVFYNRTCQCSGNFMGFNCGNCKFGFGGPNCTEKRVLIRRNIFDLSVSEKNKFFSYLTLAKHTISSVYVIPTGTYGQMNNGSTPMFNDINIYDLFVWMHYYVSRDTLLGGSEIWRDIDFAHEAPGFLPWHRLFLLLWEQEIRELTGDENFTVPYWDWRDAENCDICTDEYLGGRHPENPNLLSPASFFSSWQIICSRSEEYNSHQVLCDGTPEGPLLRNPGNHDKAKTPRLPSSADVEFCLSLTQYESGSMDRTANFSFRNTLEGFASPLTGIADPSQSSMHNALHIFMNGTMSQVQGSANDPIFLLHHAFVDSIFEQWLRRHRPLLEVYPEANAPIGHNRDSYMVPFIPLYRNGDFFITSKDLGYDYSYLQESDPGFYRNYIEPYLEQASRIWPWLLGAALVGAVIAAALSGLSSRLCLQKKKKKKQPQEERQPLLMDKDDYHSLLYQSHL
Description: B16F10 cells (6×10^4 cells/well) were aliquoted into 6-well plates and incubated. After 12 hours, the medium was changed to a medium containing a-MSH (Sigma, 0.5 μM) and the test substance (each of the polypeptides or control substances of the present invention). Each 10 μM of polypeptides were treated. In addition, 10 μM of arbutin, which is widely known as a skin whitening ingredient, was used as a control. After incubation for 24 hours, cells were harvested. Cells were lysed with PBS buffer containing 1% Triton X-100 (Sigma). After centrifugation at 12,000 rpm for 20 minutes, the supernatant was harvested and the protein concentration was measured by BCA assay kit (Thermo Fisher Scientific). To measure tyrosinase activity, 50 μg of protein (protein contained in the supernatant) was incubated at 37° C. with 5 mM L-DOPA. Absorbance was measured at 490 nm using a microplate reader (Synergy 2, BioTek). Absorbance was measured every 10 minutes for 1 hour.

B16F10 cells = experiment: Melanin assay (melanin inhibitory effect); type: cell-based; settings: 10 μM polypeptide, α-MSH 0.5 μM, 24 hours, absorbance 490 nm, control 10 μM arbutin, FIG. 1
Description: B16F10 cells (6×10^4 cells/well) were aliquoted into 6-well plates and incubated. After 12 hours, the medium was changed to a medium containing α-MSH (Sigma, 0.5 μM) and the test substance (each of the polypeptides or control substances of the present invention). Each 10 μM of polypeptides were treated. In addition, 10 μM of arbutin, which is widely known as a skin whitening ingredient, was used as a control. After incubation for 24 hours, cells were harvested. The number of cells was confirmed using a C-chip (disposable hemacytometer, […]). Cells (1×10^5 cells) were lysed with 1N NaOH at 70° C. for 1 hour. After centrifugation at 4,000 rpm for 5 minutes, the supernatant was harvested and the melanin content was measured. The absorbance of melanin was measured at 490 nm using a microplate reader (Synergy 2, BioTek).

Row | Sequence | inhibitory effect of tyrosinase (tyrosinase) | inhibitory effect of melanin production (B16F10 cells)
1 | ADQIIEYLKQQVSLL (amino acid sequence of peptide for skin whitening (AIMP1 18aa - 32aa)) [Peptide S2] | same level of the inhibitory effect of tyrosinase as arbutin | better inhibitory effect of melanin production than arbutin
2 | LKEKAILQATLREEK (peptide fragment from AIMP1(AIMP1 32aa - 46aa)) [Peptide S10] | insignificant | completely absent
